This is an account of results in patent US20160347848A1 (AstraZeneca / MedImmune, published 2016).

What all share (experiment): not described
The target in one assay is T1, human OX40 (human, UniProt P43489 29-277).
T1 construct: The form used for the Y182A statement ('native') is not described; also called native human OX40; CD134
T1 sequence: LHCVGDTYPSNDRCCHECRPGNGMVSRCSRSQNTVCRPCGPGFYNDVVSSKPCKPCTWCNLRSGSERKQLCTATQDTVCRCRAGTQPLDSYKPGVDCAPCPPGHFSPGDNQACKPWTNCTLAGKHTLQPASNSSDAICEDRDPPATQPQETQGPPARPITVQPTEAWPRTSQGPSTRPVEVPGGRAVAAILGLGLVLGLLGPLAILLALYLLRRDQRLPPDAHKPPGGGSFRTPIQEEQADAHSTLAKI

For a further assay, the target named is T2, mouse OX40 (mouse, UniProt P47741 20-272, limits assumed).
T2 construct: also called native mouse OX40
T2 sequence (looked up): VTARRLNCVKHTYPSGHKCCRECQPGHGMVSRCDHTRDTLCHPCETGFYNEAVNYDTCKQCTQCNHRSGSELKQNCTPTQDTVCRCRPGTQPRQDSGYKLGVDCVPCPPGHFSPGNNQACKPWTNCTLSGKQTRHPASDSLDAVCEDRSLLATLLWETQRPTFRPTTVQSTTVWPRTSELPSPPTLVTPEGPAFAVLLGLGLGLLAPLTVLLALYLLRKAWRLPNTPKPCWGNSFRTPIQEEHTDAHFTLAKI

For another assay, the target named is mouse PD-L1 (mouse, UniProt Q9EP73 19-239, limits assumed).
Sequence of mouse PD-L1 (Q9EP73 19-239 limits assumed): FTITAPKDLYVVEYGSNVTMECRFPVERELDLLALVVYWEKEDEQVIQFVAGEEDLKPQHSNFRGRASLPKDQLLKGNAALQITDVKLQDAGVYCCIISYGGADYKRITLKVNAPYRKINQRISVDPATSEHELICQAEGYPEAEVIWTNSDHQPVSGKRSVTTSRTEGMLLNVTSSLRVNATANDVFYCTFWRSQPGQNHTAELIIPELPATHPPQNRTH

B1: Y182A mutant mouse OX40L mouse IgG1 fusion protein control (Fc fusion, UniProt P43488 51-198, looked up)
chain: SSSPAKDPPIQRLRGAVTRCEDGQLFISSYKNEYQTMEVQNNSVVIKCDGLYIIYLKGSFFQEVKIDLHFREDHNPISIPMLNDGRRIVFTVVASLAFKDKVYLTVNAPDTLCEHLQINDGELIVVQLTPGACAPEGSYHSTVNQVPL
notes: also called OX40L FP Y182A; mOX40L FP Y182A; not shown: mouse IgG1 Fc domain and any linker or trimerization domain
As to B1, the binding result with human OX40 and with mouse OX40 was “no binding” each time.

B2: MEDI4736 (antibody, human IgG1, V domains shown)
VH: EVQLVESGGGLVQPGGSLRLSCAASGFTFSRYWMSWVRQAPGKGLEWVANIKQDGSEKYYVDSVKGRFTISRDNAKNSLYLQMNSLRAEDTAVYYCAREGGWFGELAFDYWGQGTLVTVSS
VL: EIVLTQSPGTLSLSPGERATLSCRASQRVSSSYLAWYQQKPGQAPRLLIYDASSRATGIPDRFSGSGSGTDFTLTISRLEPEDFAVYYCQQYGSLPWTFGQGTKVEIK
notes: also called 2.14H9OPT
Consider B2, for which the binding result with mouse PD-L1 was “no binding”.
